In the DeepSol protein solubility set:

Assay: soluble on expression in E. coli; label from the status in PepcDB or PDB records

Row | Sequence | soluble on expression in E. coli
1 | MAKKDEHLRKPEWLKIKLNTNENYTGLKKLMRENNLHTVCEEAKCPNIHECWAVRRTATFMILGSVCTRACRFCAVKTGLPTELDLQEPERVADSVALMNLKHAVITAVARDDQKDGGAGIFAETVRAIRRKSPFTTIEVLPSDMGGNYDNLKTLMDTRPDILNHNIETVRRLTPRVRARATYDRSLEFLRRAKEMQPDIPTKSSIMIGLGETKEEIIEVMDDLLANNVDIMAIGQYLQPTKKHLKVQKYYHPDEFAELKEIAMQKGFSHCEAGPLVRSSYHADEQVNEASKKR | not soluble
2 | MAKKTSSKGKLPPGPLPLPGLGNLLHVDFQNTPYCFDQLRRRFGDVFSLQLAWTPVVVLNGLAAVREALVTHGEDTADRPPVPITQILGFGPRSQGVFLARYGPAWREQRRFSVSTLRNLGLGKKSLEQWVTEEAACLCAAFANHSGRPFRPNGLLDKAVSNVIASLTCGRRFEYDDPRFLRLLDLAQEGLKEESGFLREVLNAVPVDRHIPALAGKVLRFQKAFLTQLDELLTEHRMTWDPAQPPRDLTEAFLAEMEKAKGNPESSFNDENLRIVVADLFSAGMVTTSTTLAWGLLLMILHPDVQRRVQQEIDDVIGQVRRPEMGDQAHMPYTTAVIHEVQRFGDIVPLGMTHMTSRDIEVQGFRIPKGTTLITNLSSVLKDEAVWEKPFRFHPEHFLDAQGHFVKPEAFLPFSAGRRACLGEPLARMELFLFFTSLLQHFSFSVPTGQPRPSHHGVFAFLVSPSPYELCAVPRHHHH | soluble
3 | MAKKTSSLLSRRRTRRPGEPPLDLGSIPWLGYALDFGKDAASFLTRMKEKHGDIFTILVGGRYVTVLLDPHSYDAVVWEPRTRLDFHAYAIFLMERIFDVQLPHYSPSDEKARMKLTLLHRELQALTEAMYTNLHAVLLGDATEAGSGWHEMGLLDFSYSFLLRAGYLTLYGIEALPRTHESQAQDRVHSADVFHTFRQLDRLLPKLARGSLSVGDKDHMCSVKSRLWKLLSPARLARRAHRSKWLESYLLHLEEMGVSEEMQARALVLQLWATQGNMGPAAFWLLLFLLKNPEALAAVRGELESILWQAEQPVSQTTTLPQKVLDSTPVLDSVLSESLRLTAAPFITREVVVDLAMPMADGREFNLRRGDRLLLFPFLSPQRDPEIYTDPEVFKYNRFLNPDGSEKKDFYKDGKRLKNYNMPWGAGHNHCLGRSYAVNSIKQFVFLVLVHLDLELINADVEIPEFDLSRYGFGLMQPEHDVPVRYRIRPHHHH | soluble
4 | MAKKVAIYTRVSTTNQAEEGFSIDEQIDRLTKYAEAMGWQVSDTYTDAGFSGAKLERPAMQRLINDIENKAFDTVLVYKLDRLSRSVRDTLYLVKDVFTKNKIDFISLNESIDTSSAMGSLFLTILSAINEFERELEY | soluble
5 | MAKNTSSNAFRKIDVDQYNEDNFREDDGVESAAAGPDESEITTLLTQGKSVEALLSALQNAPLRCKNQNVKDHALNITLRVLLSIKSTQMDQAIDTLDQNDLIDVLMKYIYRGFEIPSEGSSGHLLQWHEKAFAKGGVGCIVRVLSDTNRALEHHHHHH | soluble
6 | MAKTGMYVGLDIGTTSVKVVVAEYIEGQMNIIGVGNAKSDGLNRGIVVDIDQTVQAIQRAVRQAEEKAGIQIKSVNVGLPANLLEVESCQGMIAVSSESKEITDEDVRNVASAALVRSTPPERQIVAILPQDFTVDGFEGIKDPRGMLGVRMEMFGVVYTGPKTIIHNIRKCVEKAGLGINELVITPLALTETILTDGEKDFGTIVIDMGGGQTTTSVIHDKQLKFTHVNQEGGEFITKDISIVLNTSFNNAEALKINYGDAYPERTSANEEFPVDVIGKSEPVRVDERYLSEIIEARVEQILRKSKEVLDEIDAFELPGGVVLTGGAASMPGIVDLAQEIFEANVKLYVPNHMGLRNPVFANVISIVEYSAQLNDIYHIAKYAIPGEKSKPAQSVAVQQEVRYDTYAEQPQEEYEEFNERESGEKVTGKIKDFFSNIFD | not soluble
7 | MAKTIAYDEEARRGLERGLNALADAVKVTLGPKGRNVVLEKKWGAPTITNDGVSIAKEIELEDPYEKIGAELVKEVAKKTDDVAGDGTTTATVLAQALVREGLRNVAAGANPLGLKRGIEKAVEKVTETLLKGAKEVETKEQIAATAAISAGDQSIGDLIAEAMDKVGNEGVITVEESNTFGLQLELTEGMRFDKGYISGYFVTDPERQEAVLEDPYILLVSSKVSTVKDLLPLLEKVIGAGKPLLIIAEDVEGEALSTLVVNKIRGTFKSVAVKAPGFGDRRKAMLQDMAILTGGQVISEEVGLTLENADLSLLGKARKVVVTKDETTIVEGAGDTDAIAGRVAQIRQEIENSDSDYDREKLQERLAKLAGGVAVIKAGAATEVELKERKHRIEDAVRNAKAAVEEGIVAGGGVTLLQAAPTLDELKLEGDEATGANIVKVALEAPLKQIAFNSGLEPGVVAEKVRNLPAGHGLNAQTGVYEDLLAAGVADPVKVTRSALQNAASIAGLFLTTEAVVADKPEKEKASVPGGGDMGGMDF | soluble
